Source: patent US20230357420A1 (VILLARIS THERAPEUTICS, published 2023)
Like-named read-outs stand apart in the source and are kept apart here.

Assays:
Human CD122 [1] = molecular target: T1, Human CD122 (human, UniProt P14784 27-551); experiment: cell-based or functional assay
T1 sequence: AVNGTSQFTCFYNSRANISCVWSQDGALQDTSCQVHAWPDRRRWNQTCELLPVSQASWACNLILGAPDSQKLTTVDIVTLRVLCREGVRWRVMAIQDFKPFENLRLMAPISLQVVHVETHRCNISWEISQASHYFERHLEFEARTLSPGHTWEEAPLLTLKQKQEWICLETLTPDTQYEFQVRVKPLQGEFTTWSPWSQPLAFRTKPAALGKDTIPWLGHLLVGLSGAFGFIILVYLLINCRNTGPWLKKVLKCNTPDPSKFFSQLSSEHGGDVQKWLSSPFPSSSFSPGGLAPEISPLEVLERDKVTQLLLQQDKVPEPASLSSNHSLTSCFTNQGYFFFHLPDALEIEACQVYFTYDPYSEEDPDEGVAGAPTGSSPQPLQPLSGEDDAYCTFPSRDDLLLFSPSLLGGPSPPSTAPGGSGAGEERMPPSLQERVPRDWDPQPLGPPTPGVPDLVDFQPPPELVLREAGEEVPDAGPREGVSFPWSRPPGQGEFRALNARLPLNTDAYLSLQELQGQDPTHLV

Rhesus CD122 [2] = molecular target: T2, Rhesus CD122 (rhesus monkey, UniProt Q38J85 27-551 (cynomolgus entry)); experiment: flow cytometry (FACS) on rhIL15Rβ-transfected CHO-K1 cells, anti-human IgG-FITC, GeoMFI
T2 construct: also called rhCD122 on cells
T2 sequence: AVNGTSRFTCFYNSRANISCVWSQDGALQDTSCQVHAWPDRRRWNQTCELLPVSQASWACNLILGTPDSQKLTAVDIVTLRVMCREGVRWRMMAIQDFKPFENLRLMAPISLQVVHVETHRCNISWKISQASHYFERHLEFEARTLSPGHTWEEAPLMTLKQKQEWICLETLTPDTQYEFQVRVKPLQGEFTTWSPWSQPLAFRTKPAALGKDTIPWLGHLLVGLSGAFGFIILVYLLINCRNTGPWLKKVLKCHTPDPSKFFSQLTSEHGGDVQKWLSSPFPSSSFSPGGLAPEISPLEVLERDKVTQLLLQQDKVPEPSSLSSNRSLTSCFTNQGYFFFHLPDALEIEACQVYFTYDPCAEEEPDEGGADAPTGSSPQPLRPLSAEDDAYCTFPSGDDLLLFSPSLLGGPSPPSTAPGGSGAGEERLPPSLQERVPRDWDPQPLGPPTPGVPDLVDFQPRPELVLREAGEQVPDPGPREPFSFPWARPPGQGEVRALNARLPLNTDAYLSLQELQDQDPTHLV
Experimental: (§1) Purified IgGs were tested in FACs for binding to human and rhesus CD122 expressed on CHO-K1 stable cell lines and CHO-K1 wild-type cells. The IgG samples were titrated in three-fold serial dilutions starting at 500 nM to […]. Binding of IgGs was detected with a mouse anti-human IgG conjugated to FITC. Results were analyzed by examining the Mean Fluorescence Intensity (MFI) of 10000 cells per sample in the BL-1 channel detector of a flow cytometer (AttuneTM NxT Acoustic Focusing Cytometer, Invitrogen/ ThermoFisher Scientific).

Human CD122 [3] = molecular target: T1, Human CD122; experiment: flow cytometry (FACS) on huIL15Rβ-transfected CHO-K1 cells, anti-human IgG-FITC, GeoMFI
Experimental: as §1

Rhesus CD122 [4] = molecular target: T2, Rhesus CD122; experiment: flow cytometry (FACS) on rhIL15Rβ-transfected CHO-K1 cells, anti-human IgG-FITC, GeoMFI; remark: listed apart in the source
Experimental: as §1

Rhesus CD122 [5] = molecular target: T2, Rhesus CD122; experiment: as above; remark: listed apart in the source
Experimental: as §1

Rhesus CD122 [6] = molecular target: T2, Rhesus CD122; experiment: as above; remark: listed apart in the source
Experimental: as §1

Human CD122 [7] = molecular target: T1, Human CD122; experiment: flow cytometry (FACS) on huIL15Rβ-transfected CHO-K1 cells, anti-human IgG-FITC, GeoMFI; remark: listed apart in the source
Experimental: as §1

CD20 = molecular target: T3, CD20 (human, UniProt P11836 1-297); experiment: Retrogenix cell microarray: fixed HEK293 cells reverse-transfected with the target, AF647 anti-human IgG detection
T3 construct: whole, on cells; Control target; also called MS4A1
T3 sequence (looked up): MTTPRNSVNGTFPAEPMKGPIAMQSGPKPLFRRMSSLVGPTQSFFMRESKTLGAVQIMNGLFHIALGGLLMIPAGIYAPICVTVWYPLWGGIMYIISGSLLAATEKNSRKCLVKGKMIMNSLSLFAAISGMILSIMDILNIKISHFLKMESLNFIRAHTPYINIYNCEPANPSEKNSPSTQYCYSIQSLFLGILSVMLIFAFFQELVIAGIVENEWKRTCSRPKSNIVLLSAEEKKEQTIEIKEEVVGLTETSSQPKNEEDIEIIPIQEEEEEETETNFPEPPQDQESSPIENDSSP
Experimental: (§2) Slides were analyzed as above.
(§3) The plasmid samples for control and potential target receptors were then re-arrayed onto new chips for repeat analyses in duplicate. […] Control experiments using the same cells but no primary antibody (FIG. .

EGFR = molecular target: T4, EGFR (human, UniProt P00533 25-1210); experiment: as above
T4 construct: whole, on cells; Control target on the confirmation array
Experimental: as §2, §3

[8] = molecular target: T5, Human CD122 human Fc tagged recombinant protein (human, UniProt P14784 27-240); experiment: Alphascreen epitope competition: unlabelled VillMAb-1 at log10 -1.9 to 2 nM against VillMab-1 binding to human CD122-Fc (self-competition); CPS (crosstalk-corrected)
T5 construct: also called human CD122-Fc; not shown: human Fc tag
T5 sequence: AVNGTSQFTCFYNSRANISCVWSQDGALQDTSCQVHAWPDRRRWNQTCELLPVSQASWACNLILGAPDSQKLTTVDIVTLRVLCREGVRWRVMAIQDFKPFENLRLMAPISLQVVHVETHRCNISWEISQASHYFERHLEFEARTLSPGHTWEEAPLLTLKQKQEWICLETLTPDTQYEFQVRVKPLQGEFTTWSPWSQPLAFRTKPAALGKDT

B1: IgG1-MIKβ1 (humanized) (antibody, V domains shown)
VH: EVQLLESGGGLVQPGGSLRLSCAASGFSVTSYGVHWIRQAPGKGLEWLGVIWSGGSTDYNAAFISRLTISKDNSKNTVYFQMNSLQAEDTAIYYCARAGDYNYDGFAYWGQGTLVTVSS
VL: DIVLTQSPSSLSASVGDRVTITCSGSSSVSFMYWYQQRPGKAPRLLIYDTSNLASGVPSRFSGSGSGTSYTFTISSLQPEDIATYYCQQWSTYPLTFGQGTKVEVK
notes: also called VillMab-1; VillMAB-1
IC50, IL-15-induced M07e cell proliferation (Human CD122 [1]): 9.79 mg/L | EC50 (read off the curve) (Rhesus CD122 [2]): ~0.7 nM | EC50 (read off the curve) (Human CD122 [3]): ~0.9 nM | EC50 (read off the curve) (Rhesus CD122 [4]): ~0.6 nM | EC50 (read off the curve) (Rhesus CD122 [5]): ~0.6 nM | EC50 (read off the curve) (Rhesus CD122 [6]): ~0.7 nM | EC50 (read off the curve) (Human CD122 [7]): ~0.9 nM | binding result (CD20): no binding (tested: 5 µg/ml) | binding result (EGFR): no binding (tested: 5 µg/ml) | IC50 (read off the curve) [8]: ~2 nM
